Test results taken from PMC3995681, “Structural, Kinetic and Proteomic Characterization of Acetyl Phosphate-Dependent Bacterial Protein Acetylation” (PLoS ONE, 2014).

Target: the molecule itself
Experiment: crystal structure; GapA crystals from PACT G2 (0.2 M sodium bromide, 0.1 M Bis Tris propane 7.5, 20% PEG 3350), grown at 22°C, soaked with about 10 mM acP for less than 30 sec; data at 100 K

B1: glyceraldehyde-3-phosphate dehydrogenase (GapA) from E. coli (enzyme, E. coli K-12, UniProt P0A9B2 1-331, looked up)
chain: MTIKVGINGFGRIGRIVFRAAQKRSDIEIVAINDLLDADYMAYMLKYDSTHGRFDGTVEVKDGHLIVNGKKIRVTAERDPANLKWDEVGVDVVAEATGLFLTDETARKHITAGAKKVVMTGPSKDNTPMFVKGANFDKYAGQDIVSNASCTTNCLAPLAKVINDNFGIIEGLMTTVHATTATQKTVDGPSHKDWRGGRGASQNIIPSSTGAAKAVGKVLPELNGKLTGMAFRVPTPNVSVVDLTVRLEKAATYEQIKAAVKAAAEGEMKGVLGYTEDDVVSTDFNGEVCTSVFDAKAGIALNDNFVKLVSWYDNETGYSNKVLDLIAHISK
modifications: acetyl-lysine at K46, K249, K257 and K116 after the acP soak of the crystals (not in all molecules of the asymmetric unit)
notes: glyceraldehyde-3-phosphate dehydrogenase GapA, E. coli K-12, ORF of the gene from the ASKA clone; The crystals were grown from unmodified protein and acetylated by a soak with acP of under 30 sec; source: E. coli BL-21 (DE3) Magic cells, ASKA clone in pCA24N, purified
- stoichiometry N: 4
